Earlier results in publication PMC11816674.

Experiments:
IP3R N-terminal region = IP3R N-terminal region (UniProt Q14643)
[1] = target: Cav1.4 1579-1605 (Homo sapiens) (UniProt O60840)
Sequence of UniProt O60840 (O60840 1579-1605): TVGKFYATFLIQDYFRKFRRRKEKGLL

Sequence of UniProt Q14643 (Q14643 1-604): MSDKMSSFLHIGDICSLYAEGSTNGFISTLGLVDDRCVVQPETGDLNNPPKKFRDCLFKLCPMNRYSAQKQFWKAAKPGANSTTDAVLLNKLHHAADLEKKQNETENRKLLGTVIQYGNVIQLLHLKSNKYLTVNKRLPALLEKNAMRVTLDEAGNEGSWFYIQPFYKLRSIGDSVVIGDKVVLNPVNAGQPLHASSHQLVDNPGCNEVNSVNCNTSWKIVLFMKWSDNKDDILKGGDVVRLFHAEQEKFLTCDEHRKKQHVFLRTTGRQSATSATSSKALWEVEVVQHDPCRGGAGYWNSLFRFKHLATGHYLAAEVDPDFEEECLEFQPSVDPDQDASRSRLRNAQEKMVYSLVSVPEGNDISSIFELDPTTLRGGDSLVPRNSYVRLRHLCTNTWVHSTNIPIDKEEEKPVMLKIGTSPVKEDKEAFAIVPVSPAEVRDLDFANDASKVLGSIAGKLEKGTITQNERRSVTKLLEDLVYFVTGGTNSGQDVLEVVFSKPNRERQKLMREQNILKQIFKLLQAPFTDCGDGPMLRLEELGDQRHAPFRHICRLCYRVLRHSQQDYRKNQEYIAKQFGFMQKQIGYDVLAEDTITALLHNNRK

Kd (IP3R N-terminal region)	Kd [1]	Substance
3000 nM	–	CaBP1 (from UniProt Q9NZU7)
–	800 nM	CaBP4 (from UniProt P57796)
